According to patent publication US7648964B2, “Use of lacritin in promoting ocular cell survival” (University of Virginia Patent Foundation, priority 2004, dated 2010):

B1: lacritin: recombinant human lacritin from E. coli; mature 119 residue fragment (SEQ ID NO:10) of native lacritin SEQ ID NO:4 (protein, listed as Homo sapiens)
chain: EDASSDSTGADPAQEAGTSKPNEEISGPAEPASPPETTTTAQETSAAAVQGTAKVTSSRQELNPLKSIVEKSILLTEQALAKAGKGMHGGVPGGKQFIENGSEFAQKLLKKFSLLKPWA

Experiments:
NFAT = NFAT changes by Western blotting in HSG cells; type: cell-based, human
From the text: There has been more evidence regarding PKC alpha translocation and NFAT activation.

melanoma (WM-164) cells = assay: 3H-thymidine uptake mitogenesis assay; type: cell-based, human
Method: (§1) For phosphotyrosine blotting and mitogenesis assays, cells in serum-containing media were seeded overnight in 24-well plates at a density of 0.5×10^5 cells/mm^2 corresponding to 20-30% confluency after cell attachment, incubated in serum-free media without supplements for 24 h (phosphotyrosine) or washed with serum-free media without supplements three times (mitogenesis) and incubated with lacritin (1-1000 nM), or positive controls EGF (1.6 nM) and 10% fetal bovine serum, or negative controls bovine serum albumin or no additive in serum-free media without supplements for the indicated times (phosphotyrosine) or 30 h (mitogenesis). For phosphotyrosine assays, cells were extracted in 1% NP40 containing sodium vanadate (2 mg/ml), DTT (5 mg/ml), protease inhibitors, 50 mM HEPES, 100 mM NaCl, and 2 mM EDTA; then separated by 10% SDS PAGE, transferred and blotted. The following antibodies (Cell Signaling Technology, Beverly Mass.) were tested: antiphosphotyrosine antibody (P-Tyr-100), anti-phospho-PKC αβII, anti-PKCα, anti-phospho-PKCδ, anti-phospho-PKC (pan), anti-p44/42 MAPK, anti-phospho-Raf, anti-phospho-SAPK/JNK, anti-phospho-p38 Map kinase, anti-phospho-Raf, anti-phospho-Akt, anti-phospho-CaMKII, anti-phospho-MARCKS, or anti-tubulin (loading control). After washing, bound antibodies were detected with peroxidase-labeled secondary antibody and ECL. With the exception of at least nine proteins in the P-Tyr-100 blot (FIG. 1), none of the effectors tested above appeared to be phospho-activated during lacritin signaling (not shown). For mitogenesis (Hussaini et al., '00), [^3H]-thymidine (2 mCi/ml) was added for the next 6 h. Incorporation was stopped with ice-cold phosphate buffered saline and followed by addition of cold and then room temperature trichloracetic acid (10%) for 10 min each, washing of cells with phosphate buffered saline, solubilization with 1 N sodium hydroxide, neutralization with 1 N hydrochloric acid, addition of scintillation fluid and then quantitation in a scintillation counter. To deplete PKCα in HSG cells, a pool of four PKCα-specific siRNAs (100 nM) were transfected via LipofectAMINE 2000 in Opti-MEMI Reduced Serum Medium (Invitrogen, Grand Island N.Y.) without serum and antibiotics according to manufacturer's instructions. Each of the four siRNAs was also individually transfected. In negative controls, cells were transfected with a pool of four lamin-specific siRNAs (Upstate LLC, Charlottesville Va.; Dharmacon Inc, Lafayette Colo.). Seventy-two hours post-transfection, mitogenesis was assessed by co-addition of 10 […] lacritin and [^3H]-thymidine (2 mCi/ml) (Amersham, Piscataway N.J.) for 24 hrs. PKCα depletion was confirmed by Western blotting.

[1] = tested on: erythroleukemia (K-562) cells; assay: 3H-thymidine uptake mitogenesis assay; type: cell-based, human
Method: as §1

[2] = tested on: foreskin fibroblast (HS68) cells; assay: 3H-thymidine uptake mitogenesis assay; type: cell-based, human
Method: as §1

[3] = tested on: fibrosarcoma (HT1080) cells; assay: 3H-thymidine uptake mitogenesis assay; type: cell-based, human
Method: as §1

cervical (HeLa) cells = assay: 3H-thymidine uptake mitogenesis assay; type: cell-based, human
Method: as §1

[4] = tested on: non-invasive breast carcinoma (MCF7) cells; assay: 3H-thymidine uptake mitogenesis assay; type: cell-based, human
Method: as §1

[5] = tested on: embryonic kidney (HEK) cells; assay: 3H-thymidine uptake mitogenesis assay; type: cell-based, human
Method: as §1

melanoma (SK-MEL) cells = assay: 3H-thymidine uptake mitogenesis assay; type: cell-based, human
Method: as §1

EGF = EGF (Homo sapiens, UniProt P01133); assay: ECM binding ELISA; settings: 0-30 nM lacritin
Method: (§2) Binding studies were carried out in 96 well plates coated with 10 μg/well of collagen IV, laminin-1, entactin/nidogen-1, collagen I, fibronectin, vitronectin, EGF, heparin or BMS. Wells were washed, blocked (PBS-T), incubated with 0-30 nM lacritin (in PBS-T containing 1% BSA) for 1 hr (4° C.), washed and detected with anti-lacritin antibody (1/1000) by ELISA.

fibronectin = fibronectin (Homo sapiens, UniProt P02751); assay: ECM binding ELISA; settings: 0-30 nM lacritin
Method: as §2

Sequence of EGF (P01133 971-1023 limits assumed, species assumed): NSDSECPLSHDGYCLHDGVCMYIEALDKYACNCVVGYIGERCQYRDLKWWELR
Sequence of fibronectin (P02751 32-2477, species assumed): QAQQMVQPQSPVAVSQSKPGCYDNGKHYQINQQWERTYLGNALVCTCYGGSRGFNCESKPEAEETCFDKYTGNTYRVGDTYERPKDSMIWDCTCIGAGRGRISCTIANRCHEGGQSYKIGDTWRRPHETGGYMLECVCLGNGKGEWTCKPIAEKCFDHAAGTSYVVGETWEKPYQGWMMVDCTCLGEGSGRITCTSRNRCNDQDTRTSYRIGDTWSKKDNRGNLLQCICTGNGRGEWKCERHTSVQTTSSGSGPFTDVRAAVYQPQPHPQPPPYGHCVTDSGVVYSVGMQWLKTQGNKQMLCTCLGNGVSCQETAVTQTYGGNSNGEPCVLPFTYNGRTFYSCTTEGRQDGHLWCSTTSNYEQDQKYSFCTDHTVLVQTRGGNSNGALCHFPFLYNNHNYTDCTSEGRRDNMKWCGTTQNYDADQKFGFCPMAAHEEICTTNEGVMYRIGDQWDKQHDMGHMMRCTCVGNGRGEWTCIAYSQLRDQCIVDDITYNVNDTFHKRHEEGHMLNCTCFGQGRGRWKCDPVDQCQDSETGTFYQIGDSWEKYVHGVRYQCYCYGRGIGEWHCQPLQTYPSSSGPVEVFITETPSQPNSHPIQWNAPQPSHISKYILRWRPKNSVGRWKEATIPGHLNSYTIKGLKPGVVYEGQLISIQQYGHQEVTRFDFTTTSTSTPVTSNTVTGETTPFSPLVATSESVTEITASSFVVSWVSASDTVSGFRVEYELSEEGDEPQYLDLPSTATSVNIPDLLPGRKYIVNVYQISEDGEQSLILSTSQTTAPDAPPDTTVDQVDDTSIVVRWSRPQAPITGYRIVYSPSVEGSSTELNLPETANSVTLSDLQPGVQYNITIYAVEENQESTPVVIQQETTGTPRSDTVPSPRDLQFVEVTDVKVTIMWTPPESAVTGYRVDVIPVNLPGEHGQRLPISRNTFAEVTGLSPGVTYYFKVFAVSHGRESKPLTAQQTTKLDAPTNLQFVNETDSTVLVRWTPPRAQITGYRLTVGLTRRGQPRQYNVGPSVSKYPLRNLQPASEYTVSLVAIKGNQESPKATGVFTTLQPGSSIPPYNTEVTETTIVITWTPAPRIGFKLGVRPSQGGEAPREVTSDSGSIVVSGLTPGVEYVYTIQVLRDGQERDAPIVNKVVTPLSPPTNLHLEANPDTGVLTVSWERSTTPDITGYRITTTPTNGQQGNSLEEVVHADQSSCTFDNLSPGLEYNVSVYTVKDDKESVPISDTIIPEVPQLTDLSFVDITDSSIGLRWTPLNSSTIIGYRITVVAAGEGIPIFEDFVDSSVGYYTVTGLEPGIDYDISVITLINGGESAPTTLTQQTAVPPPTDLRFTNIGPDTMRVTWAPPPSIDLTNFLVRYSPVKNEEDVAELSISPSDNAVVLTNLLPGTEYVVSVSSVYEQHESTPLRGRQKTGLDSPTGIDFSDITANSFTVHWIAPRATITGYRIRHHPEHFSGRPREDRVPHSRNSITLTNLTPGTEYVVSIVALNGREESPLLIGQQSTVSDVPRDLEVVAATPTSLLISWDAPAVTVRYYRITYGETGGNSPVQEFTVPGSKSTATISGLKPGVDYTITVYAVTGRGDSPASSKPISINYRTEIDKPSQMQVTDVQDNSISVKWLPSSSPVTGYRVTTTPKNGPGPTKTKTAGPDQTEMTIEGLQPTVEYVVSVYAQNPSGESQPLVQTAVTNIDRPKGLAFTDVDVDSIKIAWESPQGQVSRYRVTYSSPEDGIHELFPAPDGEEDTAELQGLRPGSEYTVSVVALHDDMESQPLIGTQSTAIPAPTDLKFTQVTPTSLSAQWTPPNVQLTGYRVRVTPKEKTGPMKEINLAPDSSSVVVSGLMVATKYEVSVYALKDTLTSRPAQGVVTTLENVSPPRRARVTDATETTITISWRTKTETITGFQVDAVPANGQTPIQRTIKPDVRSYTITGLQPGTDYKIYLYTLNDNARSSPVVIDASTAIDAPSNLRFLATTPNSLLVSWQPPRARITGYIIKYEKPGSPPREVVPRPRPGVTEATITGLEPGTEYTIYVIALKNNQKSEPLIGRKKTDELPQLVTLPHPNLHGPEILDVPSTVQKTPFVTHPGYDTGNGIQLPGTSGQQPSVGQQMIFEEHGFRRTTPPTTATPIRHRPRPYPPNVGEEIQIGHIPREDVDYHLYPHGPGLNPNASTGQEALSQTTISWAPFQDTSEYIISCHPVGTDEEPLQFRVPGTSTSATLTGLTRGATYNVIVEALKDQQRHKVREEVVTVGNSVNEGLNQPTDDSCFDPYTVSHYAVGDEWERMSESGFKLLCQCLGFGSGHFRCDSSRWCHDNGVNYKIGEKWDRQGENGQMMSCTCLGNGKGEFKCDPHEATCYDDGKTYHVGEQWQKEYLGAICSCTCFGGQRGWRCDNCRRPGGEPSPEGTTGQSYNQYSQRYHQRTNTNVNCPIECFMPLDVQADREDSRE

Molecule	effect on lacritin-induced changes of NFAT (NFAT)	mitogenesis (melanoma (WM-164) cells)	mitogenesis [1]	mitogenesis [2]	mitogenesis [3]	mitogenesis (cervical (HeLa) cells)	mitogenesis [4]	mitogenesis [5]	mitogenesis (melanoma (SK-MEL) cells)	binding to EGF (EGF)	binding to fibronectin (fibronectin)
Cn1c2ccccc2c2c3c(c4c5ccccc5n(CCC#N)c4c21)CNC3=O [Go 6976]	abolish changes of NFAT										
B1		not mitogenic	not mitogenic	not mitogenic	not mitogenic	not mitogenic	not mitogenic	mitogenic	not mitogenic	No binding	remarkable avidity
